Results reported in the supplement of paper PMC10567573.

B1: PPEF2 (parent)
chain: AFKAAALIQRWYRRYVARLEMRRR
B2: C8orf76 (parent)
chain: LYLQLAICSSLQNLEKTIFCLQKL

Variants of: B1
Assay: protein stability index of a GFP-peptide fusion (GPS, HEK-293T) (PSI 1-6); higher = more stable
Conditions: c terminus: a fixed tail appended
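Note: lentivirally expressed fusions sorted by FACS into six bins by GFP to DsRed ratio, PSI derived from sequencing read proportions per bin multiplied by bin number.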

Protein stability index of substitutions, site by site:
E20: D 3.02, S 3.65, Q 4.2, G 3.31, F 3.06, H 3.46, P 3.41, M 2.39, V 2.32, I 2.63, Y 3.25, W 4.21, N 4.16, T 2.65, L 2.69
L7: T 4.39, F 3.21, A 4.83, N 2.64, I 4.77, Q 4.96, R 5.03, S 2.93, G 2.33, M 2.25
A6: E 3.81, Q 3.88, D 3.14, Y 1.75, V 4.97, F 2.77, P 1.95, C 4.25, L 2.5, K 2.83, T 4.02
R24: C 1.97, E 3, A 3.72
A17: T 3.34, F 2.6, V 3.84, E 3.13, L 3.75, Y 2.76, N 3.84, D 2.33, C 2.53, R 3.67, K 3.57, I 2.96, G 3.96, P 2.09, W 2.66, H 2.63, Q 3.62, S 3.2
A4: V 2.55, R 3.46, M 2.25, S 2.13, F 3.17, C 3.15, K 3.27, G 3.69, P 2.38
V16: W 2.32, N 3.02, M 4.45, Y 2.96, C 3.05, H 3.66, P 1.92, T 3.53, A 3.94, F 3.25, E 2.13, S 4.23, I 3.94, K 4.73, R 5.4, L 4
R23: H 2.26, L 2.48, P 2.36, C 3.14, W 1.98, E 2.44, A 2.81, T 2.25, M 1.94, Y 1.58, I 2.13, G 2.61, S 1.65, K 3.58
A5: E 4.4, I 2.4, T 2.55, G 2.94, R 2.39, P 2.08, H 2.67, Q 1.85, F 1.98, N 2.11
M21: R 2.36, T 3.06, D 2.98, Y 3.42, F 3.32, K 2.69, S 2.11, P 2.18, L 3.39, H 3.83, E 4.73, N 3.3, V 3.7, C 3.34, I 3.54, A 2.44, Q 4.15
Q9: Y 2.23, V 2.99, L 3.44, N 2.1, D 1.86, H 2.16, T 3.39, R 3.48, I 2.27, M 2.37, F 2.85, C 2.71, E 1.59, W 2.98, K 3.59, A 3.25, S 2.54
L19: H 3.33, I 3.64, Y 2.03, Q 3.87, F 2.45, S 4.1, K 4.7, C 2.48, N 3.12, V 3.42, T 4.63, W 2.13, P 3.63
A1: T 3.4, R 3.66, H 2.59, C 3.54, M 3.01, L 4.05, N 3.6, E 4.09, P 3.44, G 2.17, F 2.62, Q 3.52, I 3.77, V 3.96, W 1.77, D 2.36
R13: M 1.93, K 2.22, I 2.53, A 1.62, T 1.8, N 1.15, P 1.23, L 2.05, F 2.06, H 2.16, Q 2.26, E 1.95
R14: P 1.59, K 3, Y 1.79, M 2.2, I 1.84, D 1.66, F 2.29, L 1.84, V 1.07, H 2.42, E 2.32, T 2.49, N 2.83, A 2.17, Q 2.74
Y12: C 2.14, F 3.17, R 1.15, K 1.78, M 2.95, H 2.29, N 1.62, G 1.49, V 2.07, P 2.44, T 2.17, A 2.35, E 3.14, I 2.53
K3: S 4.09, I 2.66, D 2.27, C 1.86, R 3.84, Y 2.87, L 1.75, F 2.38, E 3.71
I8: S 4.29, M 1.94, V 3.41, Y 2.19, K 3.15, N 2.98, H 2.16, D 3.02, A 2.38, R 3.09, C 3.52, L 3.02, T 2.37, F 2.29
W11: P 2.62, E 2.46, K 5.21, I 2.81, A 4.29, D 2.79, H 2.28, Q 2.57, N 4.17, G 2.55, F 3.99, L 3.79, Y 3.91, M 2.84, S 4.12
R10: H 2.51, G 1.88, S 2.27, D 1.67, F 2.88, A 2.4, L 1.71, N 3.6, T 2.1
Y15: H 4.56, F 3.39, C 4.6, Q 4.44, M 5.14, W 3.61, V 4.4, D 1.87, A 4.61, P 1.89, R 4.11, N 5.1, E 3.89, T 4.46, L 3.82, G 1.93
R22: P 1.52, N 3.83, Q 2.74, V 1.66, I 1.89, S 2.68, D 2.24, Y 2.42, L 3.12, T 3.82, F 2.32, M 1.75, W 2.52, C 2.01
R18: E 1.96, W 2.77, Y 3.1, F 3.27, M 1.45, G 1.95, N 2.71, T 2.41, C 2.25, K 2.54, D 1.66, P 2.09, I 2.06, A 2.12
F2: D 3.53, W 3.79, P 3.78, R 3.76, A 3.87, Y 3.46, N 3.3, G 2.87, K 3.04, M 3.8, L 3.99, E 4.95

Variants of: B2
Assay: as above
Conditions: c terminus: a fixed tail appended

Protein stability index of substitutions, site by site:
L24: W 2.79, D 4.2, A 2.13, K 3.43, Q 3.56, I 2.35, E 1.75, S 1.49, F 3.39, C 3.89, P 4.07
K23: R 3.49, M 1.58, T 2.15, N 2.11, P 2.54, Q 4.24, S 1.89, Y 3.53, L 2.27, W 3.62
